From the supplement of paper PMC9233669
Fewer inactive variants are shown than the library holds.

How the values were obtained:
biotinyl-Leu-oxazolone = experiment: self-aminoacylation, catalytic enhancement (BLO) (fold over background); higher = more active; k-Seq, kA / k0A0; sequences stand for … in GGGAAUGGAUCCACAUCUACGAAUUC…UUCACUGCAGACUUGACGAAGCUG
Procedure, shortened: (§1)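 Mutagenized RNA pools (0.43 μM; 21-nt variable region) were treated with 2–1250 μM of each biotinyl-aminoacyl-oxazolone. Conditions were 50 μL HEPES/NaCl/KCl/MgCl2/CaCl2 buffer, 5% acetonitrile, pH 6.9–7.0, room temperature, 90 minutes. Catalytic enhancement, the median kA relative to the uncatalyzed rate, was derived from streptavidin capture, qPCR and Illumina sequencing.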

biotinyl-Met-oxazolone = experiment: self-aminoacylation, catalytic enhancement (BMO) (fold over background); higher = more active; k-Seq, kA / k0A0; sequences stand for … in GGGAAUGGAUCCACAUCUACGAAUUC…UUCACUGCAGACUUGACGAAGCUG
Procedure, shortened: as §1

biotinyl-Trp-oxazolone = experiment: self-aminoacylation, catalytic enhancement (BWO) (fold over background); higher = more active; k-Seq, kA / k0A0; sequences stand for … in GGGAAUGGAUCCACAUCUACGAAUUC…UUCACUGCAGACUUGACGAAGCUG
Procedure, shortened: as §1

biotinyl-Val-oxazolone = experiment: self-aminoacylation, catalytic enhancement (BVO) (fold over background); higher = more active; k-Seq, kA / k0A0; sequences stand for … in GGGAAUGGAUCCACAUCUACGAAUUC…UUCACUGCAGACUUGACGAAGCUG
Procedure, shortened: as §1

biotinyl-Ile-oxazolone = experiment: self-aminoacylation, catalytic enhancement (BIO) (fold over background); higher = more active; k-Seq, kA / k0A0; sequences stand for … in GGGAAUGGAUCCACAUCUACGAAUUC…UUCACUGCAGACUUGACGAAGCUG
Procedure, shortened: as §1

biotinyl-Phe-oxazolone = experiment: self-aminoacylation, catalytic enhancement (BFO) (fold over background); higher = more active; k-Seq, kA / k0A0; sequences stand for … in GGGAAUGGAUCCACAUCUACGAAUUC…UUCACUGCAGACUUGACGAAGCUG
Procedure, shortened: as §1

| Sequence | self-aminoacylation (biotinyl-Leu-oxazolone) | self-aminoacylation (biotinyl-Met-oxazolone) | self-aminoacylation (biotinyl-Trp-oxazolone) | self-aminoacylation (biotinyl-Val-oxazolone) | self-aminoacylation (biotinyl-Ile-oxazolone) | self-aminoacylation (biotinyl-Phe-oxazolone) |
| --- | --- | --- | --- | --- | --- | --- |
| GUUACCCUGGUCAUCGAGGGA [Fam2.1 aminoacylation ribozyme variant] | 4.18 | 5.05 | 5.33 | 2.7 | 3.06 | 4.93 |
| CAGUUUGAUAAUAGUCGCAAG [Fam3.1 aminoacylation ribozyme variant] | 1.34 | 1.32 | 1.26 | 1.54 | 1.4 | 1.89 |
| AUUCACUUAGGUCAUGGGGUG [Fam2.2 aminoacylation ribozyme variant] | 7.09 | 5.58 | 5.74 | 3.31 | 3.61 | 46.2 |
| AUCCUUCAAACAAUCGGUCUG [Fam1A.1 aminoacylation ribozyme variant] | 0.809 | 0.822 | 3.9 | 0.688 | 0.755 | 4.27 |
| AUUACCCCGAUCAUCGAGUGA [Fam2.1 aminoacylation ribozyme variant] | 7.03 | 7.24 | 7.71 | 3.77 | 3.39 | 27.4 |
| GAGUUAGCUAAUAGUCGCAAG [Fam3.1 aminoacylation ribozyme variant] | 2.12 | 1.5 | 2.62 | 1.64 | 2.14 | 2.62 |
| AUUGACCUAGGUCAUCGGUUG [Fam2.2 aminoacylation ribozyme variant] | 1.41 | 1.08 | 1.65 | 1.29 | 1.34 | 3.99 |
| AAUACCCUGGUCAUUGAGUGA [Fam2.1 aminoacylation ribozyme variant] | 5.25 | 5.79 | 6.33 | 2.9 | 2.98 | 17.1 |
| CCACAGUUCAAGCAAUCGGGC [Fam1B.1 aminoacylation ribozyme variant] | 2.18 | 2.81 | 3.13 | 2.42 | 2.04 | 10 |
| CCACACUUCAAGGUAUCGGUC [Fam1B.1 aminoacylation ribozyme variant] | 0.907 | 0.95 | 1.28 | 0.995 | 0.941 | 0.829 |
| CUCCUUCAAACAAGCGGUCUG [Fam1A.1 aminoacylation ribozyme variant] | 0.774 | 0.734 | 1.25 | 0.83 | 0.98 | 0.811 |
| CCACACUUCAAACAAACGGUC [Fam1B.1 aminoacylation ribozyme variant] | 0.598 | 0.626 | 0.471 | 0.697 | 0.692 | 0.66 |
| AUUCACCGAGGUCAUCGGGUA [Fam2.2 aminoacylation ribozyme variant] | 3.22 | 2.93 | 4 | 3.97 | 3.33 | 25 |
| AUUACCACGGUCAUCGAGUGA [Fam2.1 aminoacylation ribozyme variant] | 5.96 | 6.51 | 8.11 | 3.66 | 3.48 | 38.3 |
| CUACUUCACACCAUCGGUCUG [Fam1A.1 aminoacylation ribozyme variant] | 0.764 | 0.943 | 0.885 | 0.949 | 0.82 | 0.625 |
| AAUUACCUAGGUCAUCGGGUG [Fam2.2 aminoacylation ribozyme variant] | 6.53 | 6.04 | 7.49 | 4.24 | 4.3 | 38 |
| CCCCACUUCACGCAAUCGGUC [Fam1B.1 aminoacylation ribozyme variant] | 2.44 | 2.31 | 4.55 | 2.61 | 2.06 | 7.33 |
| AUUCACCUAGGUCGGCGGGUG [Fam2.2 aminoacylation ribozyme variant] | 8.86 | 6.63 | 6.02 | 5.49 | 4.39 | 41.6 |
| AAGUUUGCUAAGAGACGCAAG [Fam3.1 aminoacylation ribozyme variant] | 0.967 | 0.544 | 0.74 | 0.76 | 0.661 | 1.28 |
| AAUUUUGCUAAUAGUCGCAGG [Fam3.1 aminoacylation ribozyme variant] | 1.98 | 1.76 | 2.05 | 1.83 | 1.89 | 2.65 |
| AUACACCUAGGUCAUCGGGUA [Fam2.2 aminoacylation ribozyme variant] | 6.85 | 5.4 | 5.56 | 4.43 | 4.01 | 8.32 |
| CCACGAUUCAAGCAAUCGGUC [Fam1B.1 aminoacylation ribozyme variant] | 1.17 | 1.78 | 1.95 | 1.47 | 1.51 | 1.89 |
| UUCCUUCAAACAAUCGGUCUG [Fam1A.1 aminoacylation ribozyme variant] | 0.937 | 0.806 | 4.06 | 0.647 | 0.784 | 5.13 |
| CUACUUCUAACGAUCGGUCUG [Fam1A.1 aminoacylation ribozyme variant] | 0.622 | 0.747 | 0.505 | 0.688 | 0.675 | 0.785 |
| AUUACUCUGCUCAUCGAGUGA [Fam2.1 aminoacylation ribozyme variant] | 1.57 | 1.58 | 1.92 | 1.3 | 1.29 | 2.12 |
| AUUCAGCUAUGUCAUCGGGUG [Fam2.2 aminoacylation ribozyme variant] | 3.03 | 3.17 | 3.19 | 2.63 | 2.19 | 16.6 |

| Sequence | self-aminoacylation (biotinyl-Leu-oxazolone) | self-aminoacylation (biotinyl-Met-oxazolone) | self-aminoacylation (biotinyl-Trp-oxazolone) | self-aminoacylation (biotinyl-Val-oxazolone) | self-aminoacylation (biotinyl-Ile-oxazolone) | self-aminoacylation (biotinyl-Phe-oxazolone) |
| --- | --- | --- | --- | --- | --- | --- |
| CCUCACUGCAAGCAAUCGGUC [Fam1B.1 aminoacylation ribozyme variant] | 1.24 | 0.832 | 1.17 | 1.41 | 1.26 | 1.44 |
| AUUCACCUAGGUCACCGGGUU [Fam2.2 aminoacylation ribozyme variant] | 2.59 | 2.18 | 3.01 | 1.98 | 1.77 | 10 |
| CCACACUUCAAACAAUCGGUC [Fam1B.1 aminoacylation ribozyme variant] | 2.32 | 1.46 | 47 | 1.53 | 1.38 | 102 |
| CCACACUUCAACCAAUCCGUC [Fam1B.1 aminoacylation ribozyme variant] | 0.784 | 0.672 | 0.919 | 0.867 | 1.07 | 1.33 |
| AUUACCCUAGUCAUCUAGUGA [Fam2.1 aminoacylation ribozyme variant] | 6.97 | 7.37 | 10.6 | 3.59 | 3.37 | 27.6 |
| AUACCCCUGGUCAUCGAGUGA [Fam2.1 aminoacylation ribozyme variant] | 5.62 | 6.17 | 7.04 | 2.88 | 3.42 | 7.63 |
| AAGUUUGCUAGUUGUCGCAAG [Fam3.1 aminoacylation ribozyme variant] | 1.16 | 0.898 | 1.18 | 1.08 | 1.07 | 3.68 |
| CCUCACUUCAUGCAAUCGGUC [Fam1B.1 aminoacylation ribozyme variant] | 0.735 | 0.642 | 0.804 | 0.773 | 0.734 | 1.17 |
| AAGUUUGCCAAUAGUCCCAAG [Fam3.1 aminoacylation ribozyme variant] | 0.831 | 1.1 | 1.27 | 1.04 | 1.21 | 0.931 |
| AGGUUUGCUAAUAGUCGCAAU [Fam3.1 aminoacylation ribozyme variant] | 1.86 | 1.63 | 2.08 | 1.85 | 2.08 | 2.94 |
| AUUUUCCUAGGUCAUCGGGUG [Fam2.2 aminoacylation ribozyme variant] | 9.58 | 6.79 | 6.89 | 4.16 | 4.64 | 30.9 |
| CGACUUCAAACAAUCGGCCUG [Fam1A.1 aminoacylation ribozyme variant] | 6.69 | 3.62 | 95.7 | 4.06 | 3.29 | 277 |
| CCACCCUUCAAGCUAUCGGUC [Fam1B.1 aminoacylation ribozyme variant] | 1.11 | 0.845 | 1.09 | 1.43 | 1.08 | 0.937 |
| GUUCACCUAGGUCAUCAGGUG [Fam2.2 aminoacylation ribozyme variant] | 1.32 | 1.09 | 1.06 | 1.35 | 1.23 | 2.03 |
| AUUCACCUAGGACAUCGGUUG [Fam2.2 aminoacylation ribozyme variant] | 1.28 | 0.919 | 0.663 | 1.03 | 0.888 | 2.89 |
| UCCCACUUCAAGCAAUCGGUC [Fam1B.1 aminoacylation ribozyme variant] | 1.59 | 1.46 | 22.3 | 1.73 | 1.28 | 37 |
| CUACUUCAAACACUCGGACUG [Fam1A.1 aminoacylation ribozyme variant] | 0.89 | 1.01 | 1.32 | 1.2 | 1.11 | 0.435 |
| AUUCACCUAGGUUAUCCGGUG [Fam2.2 aminoacylation ribozyme variant] | 8.66 | 7.05 | 5.66 | 3.77 | 3.8 | 42.3 |
| AUUCACCUAGGUCAUGCGGUG [Fam2.2 aminoacylation ribozyme variant] | 6.55 | 4.77 | 5.3 | 4.13 | 4.12 | 33.8 |
| AUUACCCUGGACAUCUAGUGA [Fam2.1 aminoacylation ribozyme variant] | 5.12 | 5.4 | 5.51 | 2.71 | 2.55 | 17 |
| CUACUUCACACAAUGGGUCUG [Fam1A.1 aminoacylation ribozyme variant] | 0.775 | 0.826 | 0.589 | 0.754 | 0.865 | 0.647 |
| CUAAUUCAAACAAUCAGUCUG [Fam1A.1 aminoacylation ribozyme variant] | 0.674 | 0.702 | 1.44 | 0.772 | 0.659 | 3.65 |
| CUACUUCAGAAAAUCGGUCUG [Fam1A.1 aminoacylation ribozyme variant] | 0.757 | 0.803 | 0.826 | 0.816 | 0.791 | 1.55 |
| AAGUUUGCUAAUUGUGGCAAG [Fam3.1 aminoacylation ribozyme variant] | 0.988 | 0.688 | 0.773 | 0.817 | 0.735 | 0.701 |
| AUUCACGUAGCUCAUCGGGUG [Fam2.2 aminoacylation ribozyme variant] | 2.42 | 3.44 | 2.88 | 3.52 | 2.24 | 17.7 |
